These results are taken from publication PMC7566454, “Sorcin is an early marker of neurodegeneration, Ca^2+ dysregulation and endoplasmic reticulum stress associated to neurodegenerative diseases” (Cell Death & Disease, 2020).

Where only a bound is given, the exact number is not on record here.

Test [1] has as its target T1, human Sorcin (human, UniProt P30626 1-198).
T1 construct: Sorcin, human
T1 sequence (looked up): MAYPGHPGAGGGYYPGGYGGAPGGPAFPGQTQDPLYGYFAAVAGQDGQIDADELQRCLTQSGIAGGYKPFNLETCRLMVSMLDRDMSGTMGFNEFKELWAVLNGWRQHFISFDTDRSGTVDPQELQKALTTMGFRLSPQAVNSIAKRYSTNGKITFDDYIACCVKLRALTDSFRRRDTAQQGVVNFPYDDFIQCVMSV
Description: SPR; FastStep (SensiQ Pioneer); human Sorcin amine-coupled to a COOH5 chip (2000 RU); peptides 1.56-100 μM; 20 mM Hepes pH 7.4, 150 mM NaCl, 0.005% P20, 100 μM CaCl2; best fits with 2 sites. On the technique in general: In SPR one partner is held on a chip, and binding of the other changes the refractive index at the surface.

The target in test [2] is T1, human Sorcin. As to the kind of experiment: SPR; OneStep as a6 but in buffer with 1 mM EDTA (HBS-PE). Conditions: both partners purified.
In test [3] the target is T1, human Sorcin. Description: SPR; OneStep (SensiQ Pioneer); GST-Sigma-1 receptor (1-138) amine-coupled to a COOH5 chip (125 RU), signal on GST (80 RU) subtracted; Sorcin up to 5 μM; 20 mM Hepes pH 7.4, 150 mM NaCl, 0.005% P20 with CaCl2 (500 μM in the results, 100 μM in the methods); fit with 1 site. Conditions: both partners purified.

As for “RyR2 peptide corresponding to calmodulin-binding site CaMBD2”, in test [1], the equilibrium dissociation constant (Kd) (commonly a measure of binding affinity in units of concentration) was determined as 120 nM.

B1: GST-Sigma-1 receptor (cytosolic domain, residues 1-138) (domain or fragment, UniProt Q99720 1-138, looked up)
chain: MQWAVGRRWAWAALLLAVAAVLTQVVWLWLGTQSFVFQREEIAQLARQYAGLDHELAFSRLIVELRRLHPGHVLPDEELQWVFVNAGGWMGAMCLLHASLSEYVLLFGTALGSRGHSGRYWAEISDTIISGTFHQWRE
notes: Sigma-1 receptor, 'cytosolic domain' residues 1-138, cloned in frame with GST in pGEX4T1; pGEX4T1 puts GST at the N-terminus (surmised); also called Sigma-1 receptor (1–138); source: E. coli BL21(DE3), purified (GSTrap HP)
B1: the Kd in test [2] was 12000 nM; in test [3], 720 nM.

B2: RyR2 peptide corresponding to calmodulin-binding site CaMBD1 (peptide)
peptide: FRYNEVMQALNMSAALTARKTREFR
notes: source: synthetic peptide (Biomatik, purity > 90%)
In test [1] (both partners purified), B2 registered a Kd greater than 10000 nM.

B3: RyR2 peptide corresponding to calmodulin-binding site CaMBD3 (peptide)
peptide: ALRYNVLTLVRMLSLKSLKKQMKRMKKMTVK
notes: as for B2
As to B3, binding in test [1] (both partners purified) was put at a Kd of 480 nM.
